Assay results from US20150259408A1 (PROTHENA BIOSCIENCES, published 2015).

T1: human LAMA4 G domain LG1-5 displayed on 293 cells (pDisplay) (human, UniProt Q16363 830-1821, limits assumed)
T1 construct: The pDisplay vector parts (leader, tags, PDGFR transmembrane anchor) are not described; also called LAMA4-displaying 293 cells; Human LAMA4 G-domains 1-5
T1 sequence: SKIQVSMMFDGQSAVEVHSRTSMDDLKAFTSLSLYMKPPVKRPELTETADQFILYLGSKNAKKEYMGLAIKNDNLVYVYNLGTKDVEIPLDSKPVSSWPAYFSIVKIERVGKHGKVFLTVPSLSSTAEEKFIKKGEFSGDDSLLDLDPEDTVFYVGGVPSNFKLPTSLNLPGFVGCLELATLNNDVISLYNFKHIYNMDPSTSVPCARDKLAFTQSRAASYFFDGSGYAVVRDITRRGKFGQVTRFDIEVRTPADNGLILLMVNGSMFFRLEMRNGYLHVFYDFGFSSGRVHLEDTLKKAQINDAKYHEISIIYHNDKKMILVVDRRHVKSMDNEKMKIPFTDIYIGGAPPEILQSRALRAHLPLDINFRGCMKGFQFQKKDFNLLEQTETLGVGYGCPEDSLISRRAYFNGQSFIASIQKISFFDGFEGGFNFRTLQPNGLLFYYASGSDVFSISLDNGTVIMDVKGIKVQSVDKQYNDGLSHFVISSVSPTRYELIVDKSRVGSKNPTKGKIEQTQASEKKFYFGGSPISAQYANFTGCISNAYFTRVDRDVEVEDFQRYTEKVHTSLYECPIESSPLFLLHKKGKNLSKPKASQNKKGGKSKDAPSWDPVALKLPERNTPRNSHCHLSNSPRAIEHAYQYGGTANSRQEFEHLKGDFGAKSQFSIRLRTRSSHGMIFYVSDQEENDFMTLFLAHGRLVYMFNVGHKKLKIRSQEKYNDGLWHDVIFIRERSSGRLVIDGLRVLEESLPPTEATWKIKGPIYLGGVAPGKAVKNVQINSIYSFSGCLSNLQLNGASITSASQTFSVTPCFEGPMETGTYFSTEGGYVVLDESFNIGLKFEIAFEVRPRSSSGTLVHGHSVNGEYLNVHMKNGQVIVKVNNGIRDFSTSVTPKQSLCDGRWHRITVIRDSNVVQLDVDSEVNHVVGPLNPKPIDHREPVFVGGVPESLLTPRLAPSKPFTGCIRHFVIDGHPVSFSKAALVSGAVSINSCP

T2: human LAMA4 LG1-3 fragment displayed on 293 cells (pDisplay) (human, UniProt Q16363 830-1430, limits assumed)
T2 sequence: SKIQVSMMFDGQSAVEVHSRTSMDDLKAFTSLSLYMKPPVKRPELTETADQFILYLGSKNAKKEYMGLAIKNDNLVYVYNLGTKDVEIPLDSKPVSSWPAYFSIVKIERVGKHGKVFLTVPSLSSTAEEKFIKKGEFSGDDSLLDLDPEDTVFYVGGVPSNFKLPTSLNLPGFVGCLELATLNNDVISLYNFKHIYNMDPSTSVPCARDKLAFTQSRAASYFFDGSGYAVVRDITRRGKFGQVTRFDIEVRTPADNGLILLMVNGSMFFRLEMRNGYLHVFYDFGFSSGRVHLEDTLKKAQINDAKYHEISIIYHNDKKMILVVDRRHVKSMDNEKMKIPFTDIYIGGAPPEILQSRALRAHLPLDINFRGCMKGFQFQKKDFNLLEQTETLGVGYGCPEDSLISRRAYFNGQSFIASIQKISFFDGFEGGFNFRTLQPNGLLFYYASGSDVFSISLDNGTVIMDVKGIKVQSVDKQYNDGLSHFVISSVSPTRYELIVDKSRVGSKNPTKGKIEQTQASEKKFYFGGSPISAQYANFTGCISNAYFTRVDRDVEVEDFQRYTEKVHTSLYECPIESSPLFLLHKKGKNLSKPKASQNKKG

T3: LAMA4 / purified His-LAMA4 (species not stated)
T3 chain: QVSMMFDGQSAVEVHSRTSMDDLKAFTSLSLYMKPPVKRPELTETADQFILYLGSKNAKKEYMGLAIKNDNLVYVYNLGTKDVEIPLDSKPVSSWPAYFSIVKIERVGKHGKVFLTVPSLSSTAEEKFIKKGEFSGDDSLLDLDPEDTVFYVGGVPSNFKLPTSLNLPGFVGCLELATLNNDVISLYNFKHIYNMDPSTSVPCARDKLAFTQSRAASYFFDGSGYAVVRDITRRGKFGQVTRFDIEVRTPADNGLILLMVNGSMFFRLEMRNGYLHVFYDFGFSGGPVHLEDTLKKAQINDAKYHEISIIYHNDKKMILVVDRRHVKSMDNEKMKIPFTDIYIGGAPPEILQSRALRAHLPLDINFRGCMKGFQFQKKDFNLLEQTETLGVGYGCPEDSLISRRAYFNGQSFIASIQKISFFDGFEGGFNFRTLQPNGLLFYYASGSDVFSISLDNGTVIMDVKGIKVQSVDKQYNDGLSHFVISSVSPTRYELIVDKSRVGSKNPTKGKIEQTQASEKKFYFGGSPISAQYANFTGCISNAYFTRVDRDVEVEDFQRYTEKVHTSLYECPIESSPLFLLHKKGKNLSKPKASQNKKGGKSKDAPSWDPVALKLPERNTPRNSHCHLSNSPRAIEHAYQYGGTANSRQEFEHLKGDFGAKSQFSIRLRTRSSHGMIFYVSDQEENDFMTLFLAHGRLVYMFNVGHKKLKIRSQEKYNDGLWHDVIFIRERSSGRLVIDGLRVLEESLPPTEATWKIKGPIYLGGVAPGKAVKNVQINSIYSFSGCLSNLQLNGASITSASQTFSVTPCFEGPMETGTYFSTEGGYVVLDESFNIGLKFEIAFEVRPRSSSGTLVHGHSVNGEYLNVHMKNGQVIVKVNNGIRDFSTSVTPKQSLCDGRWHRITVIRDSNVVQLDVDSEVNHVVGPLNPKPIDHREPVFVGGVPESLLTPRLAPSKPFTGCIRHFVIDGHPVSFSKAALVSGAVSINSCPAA

T4: human LAMA4 LG4-5 fragment displayed on 293 cells (pDisplay) (human, UniProt Q16363 1453-1821, limits assumed)
T4 sequence: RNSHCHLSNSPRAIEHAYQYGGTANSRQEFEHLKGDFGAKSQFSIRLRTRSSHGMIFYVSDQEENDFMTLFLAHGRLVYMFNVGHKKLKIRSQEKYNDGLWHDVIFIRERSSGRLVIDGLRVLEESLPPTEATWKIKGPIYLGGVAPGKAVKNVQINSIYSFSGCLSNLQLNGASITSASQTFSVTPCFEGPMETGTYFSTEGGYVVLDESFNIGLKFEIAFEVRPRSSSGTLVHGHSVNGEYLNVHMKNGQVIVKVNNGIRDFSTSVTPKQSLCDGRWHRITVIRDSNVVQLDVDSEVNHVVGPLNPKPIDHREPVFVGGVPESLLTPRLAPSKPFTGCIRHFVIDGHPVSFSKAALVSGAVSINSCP

B1: humanized 15F7 variant H1L1 (Hu15F7VHv1/Hu15F7VLv1) (antibody, V domains shown)
VH: EVQLQQSGAEVKKPGSSVKLSCKASGYTFTSYGLSWVKQRAGQGLEWIGEIFPRSGNTYYNEKFKGKATLTADKSSSTAYMELRSLRSEDTAVYFCARGVRSPGAMDYWGQGTLVTVSS
VL: DIQMTQSSSSLSASVGDRVTITCKASEDIYNRLAWYQQKPGNAPRLLISGATSLETGVPSRFSGSGSGKDYTLTISSLQTEDFATYYCQQYWSIPYTFGGGTKLEIKR
notes: They are human, since it was captured by a goat anti-human Fc sensor; also called VHv1/VLv1
B2: chimeric 15F7 (antibody, V domains shown)
VH: QVQLQQSGTELARPGAAVKLSCKASGYTFTSYGLSWVKQRAGQGLEWIGEIFPRSGNTYYNEKFKGKATLTADKSSSTAYMELRSLTSEDSAVYFCARGVRSPGAMDYWGQGTSVTVSS
VL: DIQMTQSSSSFSVSLGDRVTITCKASEDIYNRLAWYQQKPGNAPRLLISGATSLETGVPSRFSGSGSGKDYTLSITSLQTEDVATYYCQQYWSIPYTFGGGTNLEIKR
B3: humanized 15F7 variant H2L1 (Hu15F7VHv2/Hu15F7VLv1) (antibody, V domains shown)
VH: EVQLQQSGAEVKKPGSSVKLSCKASGYTFTSYGLSWVKQRPGQGLEWIGEIFPRSGNTYYNEKFKGKATITADKSSSTAYMELRSLRSEDTAVYFCARGVRSPGAMDYWGQGTLVTVSS
VL: DIQMTQSSSSLSASVGDRVTITCKASEDIYNRLAWYQQKPGNAPRLLISGATSLETGVPSRFSGSGSGKDYTLTISSLQTEDFATYYCQQYWSIPYTFGGGTKLEIKR
notes: also called VHv2/VLv1
B4: humanized 15F7 variant H2L2 (Hu15F7VHv2/Hu15F7VLv2) (antibody, V domains shown)
VH: EVQLQQSGAEVKKPGSSVKLSCKASGYTFTSYGLSWVKQRPGQGLEWIGEIFPRSGNTYYNEKFKGKATITADKSSSTAYMELRSLRSEDTAVYFCARGVRSPGAMDYWGQGTLVTVSS
VL: DIQMTQSPSSLSASVGDRVTITCKASEDIYNRLAWYQQKPGNAPKLLISGATSLETGVPSRFSGSGSGKDFTLTISSLQPEDFATYYCQQYWSIPYTFGGGTKVEIKR
notes: also called VHv2/VLv2
B5: humanized 15F7 variant H1L2 (Hu15F7VHv1/Hu15F7VLv2) (antibody, V domains shown)
VH: EVQLQQSGAEVKKPGSSVKLSCKASGYTFTSYGLSWVKQRAGQGLEWIGEIFPRSGNTYYNEKFKGKATLTADKSSSTAYMELRSLRSEDTAVYFCARGVRSPGAMDYWGQGTLVTVSS
VL: DIQMTQSPSSLSASVGDRVTITCKASEDIYNRLAWYQQKPGNAPKLLISGATSLETGVPSRFSGSGSGKDFTLTISSLQPEDFATYYCQQYWSIPYTFGGGTKVEIKR
notes: also called VHv1/VLv2

Tests used:
[1] = biological target: T1, human LAMA4 G domain LG1-5 displayed on …; experiment: flow cytometry on 293 cells displaying LAMA4 fragments
Experimental: (§1) The specific binding of the chimeric 15F7, […] H1L2, H2L1, and H2L2 antibodies to the LG4-5 modules of the G domain of LAMA4 was tested by assessing the antibodies' ability to stain LAMA4-fragment-displaying 293 cells by flow cytometry, as shown in FIG. 9. Each of the antibodies was able to specifically bind 293 cells displaying LG1-5 and LG4-5, but not LG1-3.
(§2) Human LAMA4 G-domains 1-5 and variants were cloned into pDisplay expression construct (Life Technologies) and transiently transfected into 293 cells using standard procedures. Anti-LAMA4 antibodies were incubated with cells for 30 min at 4° C. and followed by anti-mouse-650 for 30 minutes at 4° C. Cells were analyzed for anti-laminin binding by flow cytometry using standard procedures.

[2] = biological target: T2, human LAMA4 LG1-3 fragment displayed on …; experiment: as above
Experimental: as §1, §2

[3] = biological target: T3, LAMA4 / purified His-LAMA4 (species not …); experiment: SPR (Biacore), full kinetic analysis; species of LAMA4 not stated
[4] = biological target: T4, human LAMA4 LG4-5 fragment displayed on …; experiment: flow cytometry, serial dilution on 293 cells displaying LG4-5
Experimental: Chimeric 15F7, H1L1, H1L2, H2L1, H2L2, and buffer alone were tested for their ability to bind to LAMA4-fragment-displaying cells. To test LAMA4 binding capacity, serially diluted antibodies were pre-incubated with human 293 cells displaying LG4-5, followed by anti-human-650 secondary antibody incubation as described in the Materials and Methods. Fluorescent signal was assessed via flow cytometric analyses and plotted as mean fluorescence intensity (MFI) as shown in FIG. 8.
as §2

Row | Binder | binding result [1] | binding result [2] | Kd [3] [pM] | koff [3] [s⁻¹] | kon [3] [M⁻¹ s⁻¹] | binding result [4]
1 | B1 | binds | no binding | 120 | 0.000183 | 1.5e+06 | binds
2 | B2 |  | no binding | 100 | 0.000151 | 1.5e+06 | 
3 | B3 | binds | no binding | 130 | 0.000205 | 1.56e+06 | binds
4 | B4 | binds | no binding |  |  |  | binds
5 | B5 | binds | no binding |  |  |  | binds
